Assay [1] has as its target SARS-CoV-2 spike receptor-binding domain (RBD) (SARS-CoV-2, Wuhan-Hu-1, UniProt P0DTC2).
The target of assay [2] is SARS-CoV-2 spike protein receptor-binding domain (RBD) (SARS-CoV-2, UniProt P0DTC2). Briefly: cell-based or functional assay.
The target in assay [3] is T1, SARS-CoV-2 spike receptor-binding domain (SARS-CoV-2, Wuhan-Hu-1, UniProt P0DTC2).
T1 construct: also called RBD; SARS-CoV-2 RBD
The experiment in a line: SPR; Carterra LSA array, HC200M chip; IgG captured on immobilised anti-human Fc; RBD as analyte, 7-point dilution series 300 nM to 411 pM in 1x HBSTE with 0.5 mg/mL BSA; association 5 min, dissociation 11 min; one-site binding model; two independent measurements. Particulars: both partners purified. (SPR reads the build-up and loss of mass on a sensor chip optically.)

Where a chain is given by its changes, count along the chain named. Values joined by “and” are separate entries in the source; they are usually repeats but may differ in a detail not shown here. Equal entries are not always repeated.

B1: A2 (antibody, V domains shown)
VH: QVQLVESGAEVKKPGASVKVSCKVSGYSFTDHSIHWVRQAPGKGLEWMGGINPYTGDTIYAQKFQGRVTMTEDTSTDTAYMELSSLKSEDTAVYYCARDGYCSGGSCYSFSGYGMDVWGQGTTVTVS
VL: DIQMTQSPSSVSASVGDRVTITCRASQDIGNHLAWYQQKPGKAPKLLIYASSNLASGVPSRFSGSGSGTDFTLTISSLQPEDFANYYCHQYTTYPWTFGGGTKVEIK
On to B1, for which the binding result in assay [1] is reported as “binds”.

B2: H9 (antibody, V domains shown)
VH: EVQLVESGAEVKKPGASVKVSCKVSGYSFTDHSIHWVRQAPGKGLEWMGGINPYTGDTIYAQKFQGRVTMTEDTSTDTAYMELSSLKSEDTAVYYCARDAYSGSYPYYYYGMDVWGQGTTVTVSS
VL: B1 VL with D28N, G30D, N31T, H32F, T92A, G100D
As to B2, the binding result in assay [1] was “binds”.

B3: E4 (antibody, V domains shown)
VH: QVQLVQSGAEVKKPGASVKVSCKVSGYSFTDHSIHWVRQAPGKGLEWMGGINPYTGDTIYAQKFQGRVTMTEDTSTDTAYMELSSLKSEDTAVYYCARDGYDFWSGSYGMDVWGQGTLVTVSS
VL: B1 VL with T92A
B3: in assay [1], the binding result is on record as “binds”.

B4: G9 (antibody, V domains shown)
VH: B3 VH with D102G, F103D, W104Y, S105R, S107L, Q115R, L118T
VL: B1 VL with T92A
In the case of B4, the binding result in assay [1] is “binds”.

B5: H7 (antibody, V domains shown)
VH: EVQLVQSGAEVKKPGASVKVSCKVSGYSFTDHSIHWVRQAPGKGLEWMGGINPYTGDTIYAQKFQGRVTMTEDTSTDTAYMELSSLKSEDTAVYYCARDGYDFWSGSYGMDVWGQGAQVTVS
VL: B1 VL with A50G, S51V, N53E, L54R, A55P, T92A, G100D
In the case of B5, in assay [1], the binding result was “binds”.

B6: H5 (antibody, V domains shown)
VH: B2 VH with E6Q, R38H, A100G, S102Y, Y105G, P106T
VL: DIQMTQSPSSVSASVGDRVTITCRASQSISTYLAWYQQKPGKAPKLLIYDASNRATGVPSRFSGSGSGTDFTLTISSLQPEDFANYYCLQYHNYPWTFGGGTKVEIK
B6: the binding result in assay [1] is “binds”.

B7: #41 (antibody, V domains shown)
VH: QVQLVQSGAEVKKPGASVKVSCKVSGYTSPATIHWVRQAPGKGLEWMGGISPYKGDTIYAQKFQGRVTMTEDTSTDTAYMELSSLKSEDTAVYYCAKDSYYYDSSGSGLGGGFDYWGQGTLVTVSS
VL: B6 VL with Q27R, S28D, T31S, D50G, N53T, T56S, H92S, N93I
In the case of B7, the “SARS-CoV-2 pseudovirus IC50 (neutralisation, HeLa-hACE2 cells); pair blocked: ACE2 with RBD” value in assay [2] turned out to be 3.7 ng/mL.

B8: #41 (antibody, V domains shown)
VH: B7 VH
VL: B6 VL with Q27R, S28D, T31S, D50G, N53T, T56S, H92S, N93I
As usually defined, the Kd is a measure of binding affinity in units of concentration. Read a high Kd as weaker binding. As to B8, the Kd in assay [3] is 0.257 nM and 0.333 nM.

For the origin of these results see PMC8786865 (Nature Communications, 2022).
